A word on the Kd: it is the free concentration of one partner at which half of the binding sites on the other are occupied at equilibrium, for simple one-to-one binding. One may read the koff as the first-order rate constant of dissociation. In general, kon refers to a measure of how fast the partners come together.

Drawing on patent US20130071921A1 (Pfizer, published 2013), this text covers Kd, koff and kon for 9 molecules.

The target of assay [1] is T1, Recombinant human Dkk-1 (R&D Systems cat no. 1096-DK/CF), 10xHis tag at the C terminal (human, UniProt O94907 32-266).
T1 construct: the actual N-terminus of the purified protein is marked in bold italic after residue 30, but the mark is an image lost in the text; also called rhuDkk-1; hDkk-1
T1 sequence: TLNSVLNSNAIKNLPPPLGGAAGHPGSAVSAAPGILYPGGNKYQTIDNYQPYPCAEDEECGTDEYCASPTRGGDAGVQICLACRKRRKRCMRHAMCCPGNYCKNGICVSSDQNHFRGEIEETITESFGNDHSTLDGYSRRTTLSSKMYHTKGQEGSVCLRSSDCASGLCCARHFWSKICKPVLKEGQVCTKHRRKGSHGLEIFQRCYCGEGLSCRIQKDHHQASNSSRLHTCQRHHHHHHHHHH
The experiment in a line: SPR 37C (BIAcore/ProteOn), hDkk-1 series over captured IgG (taken so as kon is printed). On the technique in general: In SPR one partner is held on a chip, and binding of the other changes the refractive index at the surface.

For assay [2], the target named is T1, Recombinant human Dkk-1 (R&D Systems …). The experiment in a line: theoretical: koff / estimated kon 1e6 1/Ms (SPR screening 37C). The method, boiled down:
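Fab variants in filtered E. coli lysates injected at 37 °C over biotinylated human Dkk-1 captured on streptavidin (BIAcore, ~500-600 RU, HBS-EP) or NeutrAvidin chips (ProteOn, 150-3000 RU, PBS/BSA/Tween-20). Dissociation followed 1-5 min or 20 min; KD taken as koff over an estimated kon of 1e6 1/Ms.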

The target is the same in assay [3]. Nature of the assay: SPR screening 37C (BIAcore/ProteOn), Fab lysate over biotinylated human Dkk-1. The method in brief:
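Fabs from filtered E. coli lysates injected at 37 °C over biotinylated human Dkk-1: BIAcore SA chip (~500–600 RU, HBS-EP, 1 min injection, 1–5 min dissociation) or ProteOn NLC chip (150–3000 RU, PBS/BSA/Tween-20, 50 s injection, 20 min dissociation). Binding level and off-rate screened.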

B1: 4E8.33L (antibody, V domains shown)
VH: EVQLVESGGGLVQPGGSLRLSCAASGFTFSSYAISWVRQAPGKGLEWVASVSGWLDTYYPDSVKGRFTISRDNAKNSLYLQMNSLRAEDTAVYYCATSLENYAFDYWGQGTTVTVSS
VL: EIVLTQSPATLSLSPGERATLSCRASESVDDFGISFINWYQQKPGQAPRLLIYAGSKQGSGIPARFSGSGSGTDFTLTISSLEPEDFAVYYCQQLKEVPPTFGGGTKVEIK
Regarding B1, in assay [1], the Kd stood at 0.008 nM, the koff amounted to 8.55e-05 s⁻¹ and the kon is 1.13e+07 M⁻¹ s⁻¹.

B2: L2.4E1 (Fab, V domains shown)
VH: EVQLVESGGGLVQPGGSLRLSCAASGFTFSSYAISWVRQAPGKGLEWVASVSGHGVWTYYPDSVKGRFTISRDNAKNSLYLQMNSLRAEDTAVYYCATSLENYAFDYWGQGTTVTVSS
VL: EIVLTQSPATLSLSPGERATLSCRASESVDDFGISFMNWYQQKPGQAPRLLIYAASKQGSGIPARFSGSGSGTDFTLTISSLEPEDFAVYYCQQSKEVPPTFGGGTKVEIK
notes: G55# and L56# read as gaps; tested as Fab (E. coli lysate, screening mode); human kappa CL and IgG2 CH1 not included here
Turning to B2, the Kd in assay [2] was 5.51 nM. In addition, the koff in assay [3] was found to be 0.00551 s⁻¹.

B3: 2E11.33L (antibody, V domains shown)
VH: EVQLVESGGGLVQPGGSLRLSCAASGFTFSSYAISWVRQAPGKGLEWVASVSGTGLGFQTYYPDSVKGRFTISRDNAKNSLYLQMNSLRAEDTAVYYCATSLRNYAFDYWGQGTTVTVSS
VL: EIVLTQSPATLSLSPGERATLSCRASESVDDFGISFINWYQQKPGQAPRLLIYAGSKQGSGIPARFSGSGSGTDFTLTISSLEPEDFAVYYCQQLKEVPPTFGGGTKVEIK
For B3, in assay [1], the Kd came to 0.03 nM, the koff stood at 8.55e-05 s⁻¹ and the kon worked out at 2.88e+06 M⁻¹ s⁻¹.

B4: L2.P4.D1 (Fab, V domains shown)
VH: EVQLVESGGGLVQPGGSLRLSCAASGFTFSSYAISWVRQAPGKGLEWVASVSGTGLGFQTYYPDSVKGRFTISRDNAKNSLYLQMNSLRAEDTAVYYCATSLDNYAFDYWGQGTTVTVSS
VL: EIVLTQSPATLSLSPGERATLSCRASESVDDFGISFMNWYQQKPGQAPRLLIYAASKQGSGIPARFSGSGSGTDFTLTISSLEPEDFAVYYCQQSKEVPPTFGGGTKVEIK
notes: tested as Fab (E. coli lysate, screening mode); human kappa CL and IgG2 CH1 not included here
With B4, in assay [2], the Kd was 2.88 nM. Also, in assay [3], the koff came out at 0.00288 s⁻¹.

B5: SL3.4F5 (Fab, V domains shown)
VH: EVQLVESGGGLVQPGGSLRLSCAASGFTFSSYAISWVRQAPGKGLEWVASVSGGGRTYYPDSVKGRFTISRDNAKNSLYLQMNSLRAEDTAVYYCATSLENYAFDYWGQGTTVTVSS
VL: EIVLTQSPATLSLSPGERATLSCRASESVDDFGISFMNWYQQKPGQAPRLLIYAASKQGSGIPARFSGSGSGTDFTLTISSLEPEDFAVYYCQQGKEVPPTFGGGTKVEIK
notes: as for B4
For B5, in assay [2], the Kd is 7.8 nM. In addition, the off-rate (koff) in assay [3] came to 0.0078 s⁻¹.

B6: 4F10.33L (antibody, V domains shown)
VH: EVQLVESGGGLVQPGGSLRLSCAASGFTFSSYAISWVRQAPGKGLEWVASVSGTGLGFQTYYPDSVKGRFTISRDNAKNSLYLQMNSLRAEDTAVYYCATSLKNYAFDYWGQGTTVTVSS
VL: EIVLTQSPATLSLSPGERATLSCRASESVDDFGISFINWYQQKPGQAPRLLIYAGSKQGSGIPARFSGSGSGTDFTLTISSLEPEDFAVYYCQQLKEVPPTFGGGTKVEIK
For B6, in assay [1], the Kd came to 0.037 nM, the koff was determined as 8.55e-05 s⁻¹ and the kon was 2.31e+06 M⁻¹ s⁻¹.

B7: 36H.33L (antibody, V domains shown)
VH: EVQLVESGGGLVQPGGSLRLSCAASGFTFSSYAISWVRQAPGKGLEWVASVSGWFDTYYPDSVKGRFTISRDNAKNSLYLQMNSLRAEDTAVYYCATSLRNYAFDYWGQGTTVTVSS
VL: EIVLTQSPATLSLSPGERATLSCRASESVDDFGISFINWYQQKPGQAPRLLIYAGSKQGSGIPARFSGSGSGTDFTLTISSLEPEDFAVYYCQQLKEVPPTFGGGTKVEIK
For the molecule B7, in assay [1], the Kd amounted to 0.017 nM, the koff was 8.55e-05 s⁻¹ and the association rate constant (kon) amounted to 5.18e+06 M⁻¹ s⁻¹.

B8: SL3.4F1 (Fab, V domains shown)
VH: EVQLVESGGGLVQPGGSLRLSCAASGFTFSSYAISWVRQAPGKGLEWVASVSGGGRTYYPDSVKGRFTISRDNAKNSLYLQMNSLRAEDTAVYYCATSLENYAFDYWGQGTTVTVSS
VL: EIVLTQSPATLSLSPGERATLSCRASESVDDFGISFMNWYQQKPGQAPRLLIYAASKQGSGIPARFSGSGSGTDFTLTISSLEPEDFAVYYCQQSKEVPSTFGGGTKVEIK
notes: as for B4
B8: in assay [2], the Kd is 16.9 nM. Besides, in assay [3], the koff was determined as 0.0169 s⁻¹.

B9: SL3.4E4 (Fab, V domains shown)
VH: EVQLVESGGGLVQPGGSLRLSCAASGFTFSSYAISWVRQAPGKGLEWVASVSGGGRTYYPDSVKGRFTISRDNAKNSLYLQMNSLRAEDTAVYYCATSLENYAFDYWGQGTTVTVSS
VL: EIVLTQSPATLSLSPGERATLSCRASESVDDFGISFMNWYQQKPGQAPRLLIYAASKQGSGIPARFSGSGSGTDFTLTISSLEPEDFAVYYCQQSKDVPPTFGGGTKVEIK
notes: as for B4
With B9, in assay [2], the Kd was 7.7 nM. Also, the koff in assay [3] is 0.0077 s⁻¹.
